The record followed here is the nanobody polyreactivity screen of Harvey et al. (2022).

The data set is described as follows: yeast display, Sf9 membrane polyspecificity reagent, FACS + sequencing; frameworks hold sequencing errors. Summed up:
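Using colony PCR, genes from sorted yeast display clones were amplified, then sequenced on MiSeq at 2 × 250 and filtered by CDR length. The clones had been stained with 10% biotinylated, detergent-solubilized Sf9 membrane reagent for 1 hour at 4 °C and sorted by FACS into low and high (top ~1%) gates on anti-HA and streptavidin fluorescence. Polyreactivity labels come from the gate of origin.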
Take “QVHLVETVRGLLQAGGSLRISCAASGRSFKRYAMGWYRQAPGKERELVAAITRSGGSTYYADSVKGRFTISRDNAKNTVYLQMNSLKPEDTAVYYCATRSYNNELEYWGQGSQVTVSS”: the “polyreactivity (PSR sort gate)” value is recorded as “high polyreactivity”. Take “QVQLVESGGGLVQAGGSLRLSCAASGRTFRYYTMGWYRPAPGKEREFVSSISWNGGSTYYADSVKGRFTISRDNAKNTVYLQIKSLKPEDTAVYYCSADDPYRVYRGPYGYWGQCTQVTVSS”: the “polyreactivity (PSR sort gate)” value is reported as “high polyreactivity”. For the sequence “QVQLVQSGGGLVQAGGSLRLSCAASGTTFNRNAMGWYRQAPGKEMELVDTITSAGSTYYADSVKGRFTISLDNAKNTVYLHMNSLKPEDTAVYYCAKGHQPGHVFHQEYGYYYWGQGTQGTVSS”, the “polyreactivity (PSR sort gate)” value is “low polyreactivity”.

Regarding “QVQLVESGGGIVQAGGSLSLSCAASGRTFIRNAIGCYRQAPGKERELVAAINSGGITNYADSVKGRFTISRDNANNTVYLQMNSLKPEDTAVYYCNARQVLYGLYLRAYPYEYWGQGTQVTVSS”, the “polyreactivity (PSR sort gate)” value is “low polyreactivity”. As for “QDQLVESGGGLVQAGGSLRLSCAASGGNFPPYDMGWYRQAPGKERDLVATISSDSTNYADSVKGRFTISRDNAKNTVYLQMNSLKPEDSAVYYCAVRFYWAPGGGEYDYWGQGTQVTVSS”, the “polyreactivity (PSR sort gate)” value is on record as “low polyreactivity”. Consider “QVQLVESRGGLVQAGGSHRLSCADAGYSNIANAMGSDRQAPGKERELVAAISIGGNTKYADSVKGRFTISRDNAKNTVYLQMNSLKPEDTAVYYCAVEDQYYSVSLGGEYDYWGQGTQVTVSS”, for which the “polyreactivity (PSR sort gate)” value was “high polyreactivity”. The entry for “QVQLVESGGGLVQAGGTLRLSCAASGRIFPRNVLGWYRQAPGKEWELVAAISSRGTRTYYADSVKGRFTISRDNAKNTVYLQMNSLKPEDTPVYYCAADGPYEGYDDWGQGTQVTVSS” is “high polyreactivity”; for “QVQLQESGGGLVQAGGSLRLSCAASGYISFSGYMGRYRQAPGKEREFVDSITPGRSTYYADSVKGRFTISRDNAENTVYLQMNSLQPEDTAVDYCAADDSRTEQHAYWGQGTQVTVRS” it is “high polyreactivity”; for “QVQLVESGGGLVQAGGSLRLSCAASGLIFSKNVMGWYRQAPGKERELVAAISQRGGSTYYADSVKGRFTISRDNAKNTVYLQMNSLKPEDTAVYYCAARSRRRDDYWGQGTQVTVSS” it is “high polyreactivity”. Next, “QVQLVESGGGLDQAGGSLRLSCAASGSIFDANAMVWYRQAPGKERELVAAITSSGGITYYADSVKGRFTISRDNAKNTVYLHLNSLKPADTAVYYCAAEYGYIDYSYLYWYDYWGQGTQVTVSS”: “high polyreactivity”.

For “QVQLVESGGGLVQAGGSLRLSCAASGNTFPGYAMGWYRQAPGKEREFVATITSNDGTTYYADSVKGRFTISRDNAKNTVYLQLNSLKPEDTAVYYCAKRLSDSWPPNWGYNYWGQGTQVTVSS”, the “polyreactivity (PSR sort gate)” value is reported as “low polyreactivity”. As to “QDQLVESAGGLVQAGGSLRLICAASASIFYWNAMGWYRQAPGKERELVAAITSGGSTYYADSVKGRFTISRDNAKNTVYLQMNSMKPEDTAVYYCAARPRGTYSRLGYWGQGTQVTVSS”, the “polyreactivity (PSR sort gate)” value is listed as “high polyreactivity”. In the case of “QVKLVESGGGLVQAGGSLRLSCAASGRIFSGYAMGWYIQAPGKESEFVAAITWNGVSTYYADSVKVRFTISRDNAKNTVYLLMNSLKPEDTAVYYCAKDYVYYPSYRGSVNYWGQGTQVTVSS”, the “polyreactivity (PSR sort gate)” value is recorded as “low polyreactivity”. Next, “QVQLVESGGGLVQEGRSLRLSCAASGRIFCFNVMGWYRQAPGKERELVATISGRTGSTYYADSVKGRFTISRDNAKNTVYLQMNSLKPEVTAVYYCNAVRTVNDYHYDYWGQVTQVTVSS”: “high polyreactivity”; “QVQLVESGGGLVQAGGSLRLSCAASGTTFAGYAMGWYRPEPGKERELVSAISSGDSTNYADSVKGRFTISRDNAKNTVYLQMNSLKPEDTAVYYCNAEYRTRVFWWAASSYDYWGQGTQVTVSS”: “low polyreactivity”. Turning to “QVQLVESGGGLVQAGGSLRLSCGASGRIFGYNAMGWYRQARGKERELVAAITTSGGSTYYADSVKGRFTLSRDNEKNTVYFQMNSLKQEDTAVYYCARDSLQVFYPYASDDYWGLGTQVTVSS”, the “polyreactivity (PSR sort gate)” value was “low polyreactivity”. In the case of “QVQLVESGGGLVQEGGSLRLSCAASGRTFAHYAMGWYKQAPGKERELVAAISWSGGSTYYADSVKGRFTISRDNPKNTVYLQMNILKPEDTGVYYCNTLGGTEYGYWGPGTQVTVSS”, the “polyreactivity (PSR sort gate)” value is recorded as “high polyreactivity”. The entry for “QVQLVESGGGIVQAGGSLRLSCAASGSIFSFNAMGWYRQAPGKERELVAAISRGGSTYYADSVKGRFTISRDNAKNTVYLQMNSLKPEDTAVYYCAADIYGHSYSYYLGEYWGQGTQVTVSS” is “high polyreactivity”. With “QVQLVESGGGLVQAGGSLRLSCASSGSIFAGYAMGWYRQAPGKERELVATITSGGSTNYADSVKGRFTISRDNAKNTVYLQMNSLKPEDTAVYYCAADVEVSIPSSYTGGEYDYWGQGTQVTVSS”, the “polyreactivity (PSR sort gate)” value is listed as “low polyreactivity”. The entry for “QVQLQESGGGMVQAGGSLRLSCASSGYISWADYMGWSRQAPGKERELVDGIGYGSTTYYADSVKGRFNISRDNAKNTAYLQMISLKPEDTAVYYCAVGWYSVTAYNYWGQGTQVTVSS” is “low polyreactivity”; for “QVQLVESGGGLVQAGGSLRLSCAASGITFYDNVMGWYRQAPGKERELVAAITSGGSTNYGDSVKGRFTFSRDNAKNTVYLQMNSLKPEETAVYYCAAQPRVVYEFPYRYGYWGQGTQVTVSS” it is “low polyreactivity”; for “QVQLVESGGRLVQAGGSLRLICAASGFTFGAYAMGWYRQAPGKERELVATIPYSGDSTYYADSVKGRFTISRDNAKNTVYLQMNSLKPEDTSVYYCAAYSTEGCGSPDWFESFDYWGQGTLVTVSS” it is “low polyreactivity”. The entry for “QVQLVESGGGLVQAGGSLRLSCAASGLTFHPYAMGWYRQAPGKERELVAAISSRGTSTYYADSVKGRFTISRDNAKNTVYLQMNSLKPEDTAVYYCAARYRLYYYFRFDWGQGTQVTVSS” is “high polyreactivity”. “QVQLVESVGGLVQAGGSLRISCAASGSIFAVYAMGWYRQAPGKESELVAAITSSGGRTYYADSVKGRFTISRDNAKNTVYFQMNSLKPEDTAVYYSATRGDTRWGLDYWGQATQVTVSS”: the “polyreactivity (PSR sort gate)” value is “high polyreactivity”. “QVQLVESGGGLVQAGGSLRLSCAASGITFRYFAMGWYRQAPGKERELVAAITRSGSTTYADSVKGRFTISRDNAKNTVYLQMNSLKPEDTAVYYCAVDYYYLTGGVDYWGQGTQVTVSS”: the “polyreactivity (PSR sort gate)” value is given as “low polyreactivity”. The entry for “QVQLVESGGGLVQAGGSLRLSCAASGIIFGTNAMGWYRQAPGKERELVAGITSSGDSTYYADSVKGRFTISRDNAKNTVYLQMNSLKPEDTAVYYCARDIRTREFDSWGQGTQVTVSS” is “low polyreactivity”. Next, “QVQLVESGGGLVQAGGSLRLSCAASGRIFPDYAMGWYRQAPGKERELVAAISSSGGRTYYADSVKGRFTISRDNAKNTVYLQMNSLKPEDTAVYYCAARGSYTSIFDYWGQGTQVTVSS”: “high polyreactivity”; “QVQLVESWGGLVQAGGSLRLSCAASGSTITAKAMGWYRQAPGKERELVAAITKSGGDTYYADSVKGRFTISRDNAKNTVYLQMNSLKPEDTAVYYCAARIRPYAYRSLYGYWGQGTQVTVSS”: “low polyreactivity”.

Regarding “QVQLVESGGGLVQAGGSLRLSCAASGIIFDWYDMGWYRQAPGKERELVATITSDDGTNYADSVKGRFTIARDNAKNTVYFQLNSLKPEDTAVYYCAKRLIPSLPILQKMDYWGQGTQVTVSS”, the “polyreactivity (PSR sort gate)” value is given as “low polyreactivity”. For “QVQLVESGGGLVQAGGSLRLICAASGRTLDYYAMGWYRQAPGKERELVGAISQSDDSTYYADSVKGRFTISRDNSKNTVYLQMNILKPEDTAVNYCAAEIELFSPDGVGIYWYVYWGQGTQVYVSS”, the “polyreactivity (PSR sort gate)” value was “high polyreactivity”.

For “QVQLVESGGGLVQAGGSLRLSCAASGRTFGGYAMGWYRQAPGTERELVAAIRSRGGRTYYADSVKGRFTISRDNAKKSVYLQMNSLKPEDTAVYYCATYGNKWGEDYWGQGTQVTVSS”, the “polyreactivity (PSR sort gate)” value is given as “high polyreactivity”.

“QVQLVESGGGLVQAGGSLRLICAASGSIFLYYAMGWYRQAPGKEMELVAAITSTGSTYYADSVKGRFTISRDNAKNTVYLQMNSLKPEDTAVYYCAAELRRLFYAYGYWGQGTQVTVSS”: the “polyreactivity (PSR sort gate)” value was “low polyreactivity”. As for “QVQLVESGGGVVQAGGSLRLSCAAYGRTFYVYTLGWYRPAPGKERELVAANTSGGSTNYADCVMGRFTISRDYAKNTVYLQMNSLKPEDTAVYYCAAKRYNRLRSYRYSDREDYWGQGTQVTVSS”, the “polyreactivity (PSR sort gate)” value is “high polyreactivity”.

As for “QVQLVESGGGLVQAGGSLRLSCAASGRIFLFNAMGWYRQAPGKEREFVAAISASGGSTYYADSVKGRFTISRDNAKNTVYLQMNSLKPEDTAVYYCAADYLYTRDVDYDYWGQGTQVTVSS”, the “polyreactivity (PSR sort gate)” value is reported as “low polyreactivity”. “QDQLVESGGGLVQAGGSLRLSCAASGFTFWEYAMGWYRHAPGKERELVAAISRGTSTYYADSVKGRFTISRDNAKNTVYLQMNSLKPEDTAVYYCASAPSYYPARHGYWGQGTQVTVSS”: the “polyreactivity (PSR sort gate)” value is “low polyreactivity”. In the case of “QVQLVESGGGLVQAGGSLRLSCAASGSTFYRYAMGWYRQAPGKERELVAAISNSGGSTNYADSVKGRFTISRDNAKNTVYLQMNSLKPEDTAVYYCAADPYDLVWVEDYDYWGQGTQVTVSS”, the “polyreactivity (PSR sort gate)” value was “high polyreactivity”. The entry for “QVQLVESGGGLVQAGGSLRLSCAASGITLYGNAMGWYRQAPGKEREFVAAISRSGDRTYYADSVKGRFTISRDNAKNTVYLPMYSLKPEDTAVYSCARDYRSYTGSYDTSYDYWGQGTQVTVSS” is “high polyreactivity”. The entry for “QDQLVESRGGIVQAGGRLRLSCAASGSRFGGYGMGWYRQAPWKEREFVAVITKRGGSTYYADSVKGRFTISRDNAYNTVYLQMNSLKPEDTAVDYCNKVGYYASVLCYDYWGQGTQVTVSS” is “high polyreactivity”; for “QVQLVESGGGLVQAGGSLRLSCAASGRTFLTYAMGWYRQAPGKERELVAAISKRGGSTYYADSVKGRFTISRDNAKNTVYLQMNSLKPEDTAVYFCAADNGNHYGFWGQGTQVTVSS” it is “high polyreactivity”; for “QVQLVESAGGLVQAGGSLRLSCAASGTFYYYAMGWYRQAPGKERELVAAISNGDSTTYADSVKGRFTISRDNAKNTVYLQMNSLNPEDTAVYYCAAYRYTPRTSRGYYYWGQGTQVTVSS” it is “low polyreactivity”.
